Experimental data published in patent publication US20080095772A1 (Chugai, published 2008).
Read-outs that look alike come from different tables or passages of the source. Values belong to the binder of their own block, whether it stands above or below them.

Tests used:
PTHrP (1-34+Cys) = PTHrP (1-34+Cys) (human, C-terminal Cys coupled to sensor tip CM5 through PDEA (thiol coupling)); assay: BIACORE (SPR), PTHrP (1-34+C) immobilised on CM5 through the C-terminal Cys, antibody as analyte
Experimental: In this experiment, kinetic analysis of the antigen-antibody interaction using BIACORE was conducted. PTHrP(1-34+Cys) was used as an antigen and adsorbed onto the sensor tip specifically for C-terminals. Purified antibodies of various concentrations were used as an analyte. From the sensorgram obtained, kinetics parameters (binding rate constant “kass” and dissociation rate constant “kdiss”) were calculated.
As a running buffer, HBS (10 mM HEPES, pH 7.4; 0.15 M NaCl; 3.4 mM EDTA; 0.005% Surfactant P20) at a flow rate of 5 μl/min. was employed. The carboxyl groups of carboxymethyldextran on the sensor tip CM5 were activated by an injection of 100 μl of 0.05M N-hydroxysuccinimide (NHS)/0.2M N-ethyl-N′-(3-dimethylaminopropyl)carbodiimide hydrochloride (EDC) and an injection of 100 μl of 80 mM 2-(2-pyridinyldithio)ethanamine (PDEA)/0.1M borate buffer (pH 8.5), and an additional injection of 10 μl of 5 μg/ml PTHrP (1-34+C)/10 mM sodium acetate buffer (pH 5.0) to adsorbe onto the C-terminals of PTHrP (1-34+C) specifically for Cys residues. Subsequently, an injection of 100 μl of 50 mM (L)-cystein/1M NaCl/0.1M sodium formate buffer (pH 4.3) was conducted to block excessively activated groups. Subsequently, an injection of 10 μl of 0.1M glycine-HCl buffer (pH 2.5) and 10 μl of 10 mM HCl was conducted to wash the substances having non-covalent bonding.
The date file of interest was read and a comparison of the reaction patterns was conducted by overlaying the reaction regions of interest (FIGS. 20-24). […] Further, kinetic analysis of the interaction was conducted using an analysis software specifically designed for BIACORE “BIAevaluation 2.1” (Pharmacia) which is capable of calculating the kinetics parameters (binding rate constant “kass” and dissociation rate constant “kdiss”) by curve cutting (Tables 4 and 5).

human PTHrP (1-34) [1] = molecular target: T1, human PTHrP (1-34) (human); assay: ELISA on plate-coated human PTHrP (1-34) (1 µg/ml); bound antibody detected with alkaline phosphatase-conjugated goat anti-human IgG; O.D. 405/620
T1 construct: Synthetic peptide (Peninsula; Peptide Research Institute), coated on ELISA plates at 1 µg/ml or used in solid phase RIA; also called human parathyroid hormone related protein (1-34)
Experimental: (§1) An ELISA plate for determining antigen binding ability was prepared as follows. Each of the wells of a 96-well plate for ELISA (Maxisorp, NUNC) was coated with 100 μl of a coating buffer supplemented with 1 μg/ml of human PTHrP (1-34) and then blocked with 200 μl of a dilution buffer. Thereafter, into each of the wells, was added a culture supernatant of the COS-7 cells in which the hybrid antibody or humanized antibody was expressed or a solution of the purified hybrid antibody or the purified humanized antibody in stepwise dilution. After incubating at room temperature and washing with PBS-Tween20, 100 μl of alkaline phosphatase-conjugated goat anti-human IgG antibody (TAGO) was added to each of the wells. […] The solution was measured for absorbance at 405 nm using Microplate Reader (Bio Rad).

human PTHrP (1-34) [2] = molecular target: T1, human PTHrP (1-34); assay: as above; remark: listed apart in the source
Experimental: as §1

human PTHrP (1-34) [3] = molecular target: T1, human PTHrP (1-34); assay: as above; remark: listed apart in the source
Experimental: as §1

human PTHrP (1-34) [4] = molecular target: T1, human PTHrP (1-34); assay: as above; remark: listed apart in the source
Experimental: as §1

human PTHrP (1-34) [5] = molecular target: T1, human PTHrP (1-34); assay: as above; remark: listed apart in the source
Experimental: as §1

Kd (PTHrP (1-34+Cys)): 0.134 nM
koff (PTHrP (1-34+Cys)): 0.000166 s⁻¹
kon (PTHrP (1-34+Cys)): 1.24e+06 M⁻¹ s⁻¹
binding result (human PTHrP (1-34) [1]): binds
B1: chimeric #23-57-137-1 antibody with human λ L chain C region (antibody, V domains shown)
VH: EVQLVESGGDLVKPGGSLKLSCAASGFTFSSYGMSWIRQTPDKRLEWVATISSGGSYTYYPDSVKGRFTISRDNAKNTLYLQMSSLKSEDTAMFYCARQTTMTYFAYWGQGTLVTVSA
VL: QLVLTQSSSASFSLGASAKLTCTLSSQHSTYTIEWYQQQPLKPPKYVMDLKQDGSHSTGDGIPDRFSGSSSGADRYLSISNIQPEDEAMYICGVGDTIKEQFVYVFGGGTKVTVLG
notes: It was expressed in COS-7 for ELISA and in CHO for BIACORE; also called chMBC; chH-chλ

binding result (human PTHrP (1-34) [1]): no binding (tested: about 250 ng/ml)
B2: mouse FR1/human FR2/mouse FR3,4 hybrid antibody (L chain mhmMBC1L(λ), humanized H chain version a) (antibody, V domains shown)
VH: QVQLVESGGGVVQPGRSLRLSCAASGFTFSSYGMSWVRQAPGKGLEWVATISSGGSYTYYPDSVKGRFTISRDNSKNTLYLQMNSLRAEDTAVYYCARQTTMTYFAYWGQGTLVTVSS
VL: QLVLTQSSSASFSLGASAKLTCTLSSQHSTYTIEWHQQQPEKGPRYLMKLKQDGSHSTGDGIPDRFSGSSSGADRYLSISNIQPEDEAMYICGVGDTIKEQFVYVFGGGTKVTVLG
notes: Human Cγ1 and human Cλ C regions; Expressed in COS-7

binding result (human PTHrP (1-34) [2]): binds
B3: humanized #23-57-137-1 antibody, H chain version a, L chain version s (antibody, V domains shown)
VH: QVQLVESGGGVVQPGRSLRLSCAASGFTFSSYGMSWVRQAPGKGLEWVATISSGGSYTYYPDSVKGRFTISRDNSKNTLYLQMNSLRAEDTAVYYCARQTTMTYFAYWGQGTLVTVSS
VL: QLVLTQSPSASASLGASVKLTCTLSSQHSTYTIEWYQQQPEKGPKYVMDLKQDGSHSTGDGIPDRFSGSSSGAERYLTISSLQSEDEADYICGVGDTIKEQFVYVFGGGTKLTVLG

Kd (PTHrP (1-34+Cys)): 0.358 nM
koff (PTHrP (1-34+Cys)): 0.000316 s⁻¹
kon (PTHrP (1-34+Cys)): 883000 M⁻¹ s⁻¹
binding result (human PTHrP (1-34) [3]): binds
B4: humanized #23-57-137-1 antibody, H chain version a, L chain version m (antibody, V domains shown)
VH: QVQLVESGGGVVQPGRSLRLSCAASGFTFSSYGMSWVRQAPGKGLEWVATISSGGSYTYYPDSVKGRFTISRDNSKNTLYLQMNSLRAEDTAVYYCARQTTMTYFAYWGQGTLVTVSS
VL: QLVLTQSPSASASLGASVKLTCTLSSQHSTYTIEWYQQQPEKGPRYLMDLKQDGSHSTGDGIPDRFSGSSSGAERYLTISSLQSEDEADYYCGVGDTIKEQFVYVFGGGTKLTVLG
notes: Human Cγ1 and human Cλ C regions; Expressed in COS-7 for ELISA and in CHO for BIACORE; also called hMBCm

binding result (human PTHrP (1-34) [4]): no binding (tested: about 390 ng/ml)
B5: hH / hLa (antibody, V domains shown)
VH: QVQLVESGGGVVQPGRSLRLSCAASGFTFSSYGMSWVRQAPGKGLEWVATISSGGSYTYYPDSVKGRFTISRDNSKNTLYLQMNSLRAEDTAVYYCARQTTMTYFAYWGQGTLVTVSS
VL: QLVLTQSPSASASLGASVKLTCTLSSQHSTYTIEWHQQQPEKGPRYLMKLKQDGSHSTGDGIPDRFSGSSSGAERYLTISSLQSEDEADYYCGVGDTIKEQFVYVFGGGTKLTVL
notes: copies: 2 + 2

Kd (PTHrP (1-34+Cys)): 0.225 nM
koff (PTHrP (1-34+Cys)): 0.000232 s⁻¹
kon (PTHrP (1-34+Cys)): 1.03e+06 M⁻¹ s⁻¹
binding result (human PTHrP (1-34) [2]): binds
B6: humanized #23-57-137-1 antibody, H chain version a, L chain version q (antibody, V domains shown)
VH: QVQLVESGGGVVQPGRSLRLSCAASGFTFSSYGMSWVRQAPGKGLEWVATISSGGSYTYYPDSVKGRFTISRDNSKNTLYLQMNSLRAEDTAVYYCARQTTMTYFAYWGQGTLVTVSS
VL: QLVLTQSPSASASLGASVKLTCTLSSQHSTYTIEWYQQQPEKGPKYLMDLKQDGSHSTGDGIPDRFSGSSSGAERYLTISSLQSEDEADYICGVGDTIKEQFVYVFGGGTKLTVLG
notes: Human Cγ1 and human Cλ C regions; Expressed in COS-7 for ELISA and in CHO for BIACORE; also called hMBCq

binding result (human PTHrP (1-34) [3]): binds
B7: humanized #23-57-137-1 antibody, H chain version a, L chain version l (antibody, V domains shown)
VH: QVQLVESGGGVVQPGRSLRLSCAASGFTFSSYGMSWVRQAPGKGLEWVATISSGGSYTYYPDSVKGRFTISRDNSKNTLYLQMNSLRAEDTAVYYCARQTTMTYFAYWGQGTLVTVSS
VL: QLVLTQSPSASASLGASVKLTCTLSSQHSTYTIEWYQQQPEKGPKYVMDLKQDGSHSTGDGIPDRFSGSSSGAERYLTISSLQSEDEADYYCGVGDTIKEQFVYVFGGGTKLTVLG
notes: as for B2

binding result (human PTHrP (1-34) [5]): binds
B8: mouse FR1,2/human FR3,4 hybrid antibody (L chain m/hMBC1Laλ, humanized H chain version a) (antibody, V domains shown)
VH: QVQLVESGGGVVQPGRSLRLSCAASGFTFSSYGMSWVRQAPGKGLEWVATISSGGSYTYYPDSVKGRFTISRDNSKNTLYLQMNSLRAEDTAVYYCARQTTMTYFAYWGQGTLVTVSS
VL: QLVLTQSSSASFSLGASAKLTCTLSSQHSTYTIEWYQQQPLKPPKYVMDLKQDGSHSTGDGIPDRFSGSSSGAERYLTISSLQSEDEADYYCGVGDTIKEQFVYVFGGGTKLTVLG
notes: as for B2

binding result (human PTHrP (1-34) [2]): binds
B9: humanized #23-57-137-1 antibody, H chain version a, L chain version t (antibody, V domains shown)
VH: QVQLVESGGGVVQPGRSLRLSCAASGFTFSSYGMSWVRQAPGKGLEWVATISSGGSYTYYPDSVKGRFTISRDNSKNTLYLQMNSLRAEDTAVYYCARQTTMTYFAYWGQGTLVTVSS
VL: QLVLTQSPSASASLGASVKLTCTLSSQHSTYTIEWYQQQPEKGPRYVMDLKQDGSHSTGDGIPDRFSGSSSGAERYLTISSLQSEDEADYICGVGDTIKEQFVYVFGGGTKLTVLG
notes: as for B2

binding result (human PTHrP (1-34) [4]): no binding (tested: about 460 ng/ml)
B10: hH / hLc (antibody, V domains shown)
VH: QVQLVESGGGVVQPGRSLRLSCAASGFTFSSYGMSWVRQAPGKGLEWVATISSGGSYTYYPDSVKGRFTISRDNSKNTLYLQMNSLRAEDTAVYYCARQTTMTYFAYWGQGTLVTVSS
VL: QLVLTQSPSASASLGASVKLTCTLSSQHSTYTIEWHQQQPEKGPRYLMKLKQDGSHSTGDGIPDRFSGSSSGAERYLTISSLQPEDEADYYCGVGDTIKEQFVYVFGGGTKLTVL
notes: copies: 2 + 2

binding result (human PTHrP (1-34) [5]): no binding (tested: about 340 ng/ml)
B11: human FR1,2/mouse FR3,4 hybrid antibody (L chain h/mMBC1L(λ), humanized H chain version a) (antibody, V domains shown)
VH: QVQLVESGGGVVQPGRSLRLSCAASGFTFSSYGMSWVRQAPGKGLEWVATISSGGSYTYYPDSVKGRFTISRDNSKNTLYLQMNSLRAEDTAVYYCARQTTMTYFAYWGQGTLVTVSS
VL: QLVLTQSPSASASLGASVKLTCTLSSQHSTYTIEWHQQQPEKGPRYLMKLKQDGSHSTGDGIPDRFSGSSSGADRYLSISNIQPEDEAMYICGVGDTIKEQFVYVFGGGTKVTVLG
notes: Human Cγ1 and human Cλ C regions; Expressed in COS-7; also called h/mMBC1Ld(λ)

binding result (human PTHrP (1-34) [4]): no binding (tested: about 370 ng/ml)
B12: hH / hLb (antibody, V domains shown)
VH: QVQLVESGGGVVQPGRSLRLSCAASGFTFSSYGMSWVRQAPGKGLEWVATISSGGSYTYYPDSVKGRFTISRDNSKNTLYLQMNSLRAEDTAVYYCARQTTMTYFAYWGQGTLVTVSS
VL: QLVLTQSPSASASLGASVKLTCTLSSQHSTYTIEWHQQQPEKPPRYLMDLKQDGSHSTGDGIPDRFSGSSSGAERYLTISSLQSEDEADYYCGVGDTIKEQFVYVFGGGTKLTVL
notes: copies: 2 + 2

binding result (human PTHrP (1-34) [1]): binds
B13: human FR1/mouse FR2,3,4 hybrid antibody (L chain hmmMBC1L(λ), humanized H chain version a) (antibody, V domains shown)
VH: QVQLVESGGGVVQPGRSLRLSCAASGFTFSSYGMSWVRQAPGKGLEWVATISSGGSYTYYPDSVKGRFTISRDNSKNTLYLQMNSLRAEDTAVYYCARQTTMTYFAYWGQGTLVTVSS
VL: QLVLTQSPSASASLGASVKLTCTLSSQHSTYTIEWYQQQPLKPPKYVMDLKQDGSHSTGDGIPDRFSGSSSGADRYLSISNIQPEDEAMYICGVGDTIKEQFVYVFGGGTKVTVLG
notes: as for B2

binding result (human PTHrP (1-34) [3]): no binding (tested: about 1650 ng/ml)
B14: hH / hLn (antibody, V domains shown)
VH: QVQLVESGGGVVQPGRSLRLSCAASGFTFSSYGMSWVRQAPGKGLEWVATISSGGSYTYYPDSVKGRFTISRDNSKNTLYLQMNSLRAEDTAVYYCARQTTMTYFAYWGQGTLVTVSS
VL: QLVLTQSPSASASLGASVKLTCTLSSQHSTYTIEWYQQQPEKGPRYVMKLKQDGSHSTGDGIPDRFSGSSSGAERYLTISSLQSEDEADYYCGVGDTIKEQFVYVFGGGTKLTVL
notes: copies: 2 + 2

binding result (human PTHrP (1-34) [3]): binds
B15: humanized #23-57-137-1 antibody, H chain version a, L chain version o (antibody, V domains shown)
VH: QVQLVESGGGVVQPGRSLRLSCAASGFTFSSYGMSWVRQAPGKGLEWVATISSGGSYTYYPDSVKGRFTISRDNSKNTLYLQMNSLRAEDTAVYYCARQTTMTYFAYWGQGTLVTVSS
VL: QLVLTQSPSASASLGASVKLTCTLSSQHSTYTIEWYQQQPEKGPRYVMDLKQDGSHSTGDGIPDRFSGSSSGAERYLTISSLQSEDEADYYCGVGDTIKEQFVYVFGGGTKLTVLG
notes: as for B2

binding result (human PTHrP (1-34) [2]): binds
B16: humanized #23-57-137-1 antibody, H chain version a, L chain version r (antibody, V domains shown)
VH: QVQLVESGGGVVQPGRSLRLSCAASGFTFSSYGMSWVRQAPGKGLEWVATISSGGSYTYYPDSVKGRFTISRDNSKNTLYLQMNSLRAEDTAVYYCARQTTMTYFAYWGQGTLVTVSS
VL: QLVLTQSPSASASLGASVKLTCTLSSQHSTYTIEWYQQQPEKGPRYLMDLKQDGSHSTGDGIPDRFSGSSSGAERYLTISSLQSEDEADYICGVGDTIKEQFVYVFGGGTKLTVLG

binding result (human PTHrP (1-34) [4]): no binding (tested: about 510 ng/ml)
B17: hH / hLd (antibody, V domains shown)
VH: QVQLVESGGGVVQPGRSLRLSCAASGFTFSSYGMSWVRQAPGKGLEWVATISSGGSYTYYPDSVKGRFTISRDNSKNTLYLQMNSLRAEDTAVYYCARQTTMTYFAYWGQGTLVTVSS
VL: QLVLTQSPSASASLGASVKLTCTLSSQHSTYTIEWHQQQPEKGPRYLMKLKQDGSHSTGDGIPDRFSGSSSGAERYLTISSLQSEDEADYICGVGDTIKEQFVYVFGGGTKLTVL
notes: copies: 2 + 2

binding result (human PTHrP (1-34) [5]): binds
B18: mouse FR1,2/human FR3,4 hybrid antibody (L chain m/hMBC1Ldλ, humanized H chain version a) (antibody, V domains shown)
VH: QVQLVESGGGVVQPGRSLRLSCAASGFTFSSYGMSWVRQAPGKGLEWVATISSGGSYTYYPDSVKGRFTISRDNSKNTLYLQMNSLRAEDTAVYYCARQTTMTYFAYWGQGTLVTVSS
VL: QLVLTQSSSASFSLGASAKLTCTLSSQHSTYTIEWYQQQPLKPPKYVMDLKQDGSHSTGDGIPDRFSGSSSGAERYLTISSLQSEDEADYICGVGDTIKEQFVYVFGGGTKLTVLG
notes: as for B2
